{
  "source": "paper PMC11299580",
  "about": "“Discovery of novel disease-causing mutation in SSBP1 and its correction using adenine base editor to improve mitochondrial function” (Molecular Therapy. Nucleic Acids, 2023)",
  "target": "T1, SSBP1 Arg91Gln R91Q (Homo sapiens) (UniProt Q04837)",
  "T1 sequence": "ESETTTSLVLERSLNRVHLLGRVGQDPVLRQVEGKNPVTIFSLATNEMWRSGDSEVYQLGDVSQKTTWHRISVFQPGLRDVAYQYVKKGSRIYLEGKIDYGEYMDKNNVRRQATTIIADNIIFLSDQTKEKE",
  "test": "EMSA",
  "conditions": "50 mM Tris pH 7.5, 150 mM NaCl, 10% glycerol, 30 min at room temperature; 2% agarose gel in 1x TBE",
  "note": "pKd: −log10 of the molar value.",
  "data": [
    {"sequence": "GGACTATTTATTCAATATATTTAAGAACTAATTCCAGCTGAGCGCCGG [EMSA ssDNA probe]", "values": [
      {"measurement": "pKd", "value": 7.69}
    ]}
  ]
}
